In patent US20200239579A1 (Genmab, published 2020):

T1: human PD-L2 (full length, on CHO cells) (human, UniProt Q9BQ51 20-273)
T1 construct: whole, on cells; also called CHO-PD-L2 cells
T1 sequence (looked up): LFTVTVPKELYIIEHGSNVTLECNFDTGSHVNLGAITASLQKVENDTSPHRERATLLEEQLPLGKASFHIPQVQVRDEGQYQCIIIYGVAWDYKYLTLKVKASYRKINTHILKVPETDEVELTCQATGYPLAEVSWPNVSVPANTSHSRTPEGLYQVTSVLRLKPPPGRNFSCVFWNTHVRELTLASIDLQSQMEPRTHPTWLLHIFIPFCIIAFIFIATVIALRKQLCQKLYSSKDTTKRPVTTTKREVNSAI


Columns and labels:
PDLoneECDHisCtag [1] = target: T2, PDLoneECDHisCtag (human, UniProt Q9NZQ7 19-238); assay: BLI cross-block, second antibody on PDLoneECDHisCtag held by immobilised MPDL; bold = blocking
T2 construct: Expressed in HEK-293F cells; theoretical molecular weight 29 kDa; also called recombinant human PD-L1 ECD; human PD-L1 (BLI); not shown: C-terminal His-tag; C-tag
T2 sequence (Q9NZQ7 19-238, form in doubt): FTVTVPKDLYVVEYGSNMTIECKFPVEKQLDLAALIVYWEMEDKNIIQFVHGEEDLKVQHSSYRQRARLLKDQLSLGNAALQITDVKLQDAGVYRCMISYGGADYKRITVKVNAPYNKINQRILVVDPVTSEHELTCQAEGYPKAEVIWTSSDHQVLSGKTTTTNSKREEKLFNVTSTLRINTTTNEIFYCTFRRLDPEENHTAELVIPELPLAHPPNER
Experimental: (§1) Antibody cross-block testing was performed using biolayer interferometry (BLI) on an Octet HTX instrument (ForteBio). Antibodies (20 μg/ml in 10 mM sodium acetate buffer pH 6.0 (ForteBio)) were immobilized on Amine-Reactive 2nd Generation (AR2G) biosensors (ForteBio) according to the instructions of the manufacturer. After a baseline (50 s) in Sample Diluent (ForteBio), biosensors containing immobilized antibodies were loaded for 500 s with PDLoneECDHisCtag (100 nM or 2.7 μg/ml), after which the association response of a second antibody (10 μg/ml) was followed for 500 s. Biosensors were regenerated by using 3 times 5 s alternating exposures to 10 mM glycine pH 2.5 and Sample Diluent. The experiment was repeated with a new set of second antibodies starting from the baseline step. Each biosensor was used 6 times. The experiment was performed at 30° C. using a shaker speed of 1000 rpm. Data was analyzed using Data Analysis Software v9.0.0.12 (ForteBio). The Y-axis was aligned to the association step and Savitzky-Golay filtering was applied. The average buffer response was subtracted from the association response of the second antibody in order to correct for the dissociation of PDLoneECDHisCtag from the immobilized antibody. The corrected association responses were plotted in a matrix format.

PDLoneECDHisCtag [2] = target: T2, PDLoneECDHisCtag; assay: BLI cross-block, second antibody on PDLoneECDHisCtag held by immobilised 338; bold = blocking
Experimental: as §1

PDLoneECDHisCtag [3] = target: T2, PDLoneECDHisCtag; assay: BLI cross-block, second antibody on PDLoneECDHisCtag held by immobilised 516; plain = non-blocking
Experimental: as §1

PDLoneECDHisCtag [4] = target: T2, PDLoneECDHisCtag; assay: BLI cross-block, second antibody on PDLoneECDHisCtag held by immobilised 547; bold = blocking
Experimental: as §1

PDLoneECDHisCtag [5] = target: T2, PDLoneECDHisCtag; assay: BLI cross-block, second antibody on PDLoneECDHisCtag held by immobilised 321; bold = blocking
Experimental: as §1

PDLoneECDHisCtag [6] = target: T2, PDLoneECDHisCtag; assay: BLI cross-block, second antibody on PDLoneECDHisCtag held by immobilised 632; plain = non-blocking
Experimental: as §1

PDLoneECDHisCtag [7] = target: T2, PDLoneECDHisCtag; assay: BLI cross-block, second antibody on PDLoneECDHisCtag held by immobilised MEDI; bold = blocking
Experimental: as §1

PDLoneECDHisCtag [8] = target: T2, PDLoneECDHisCtag; assay: BLI cross-block, second antibody on PDLoneECDHisCtag held by immobilised 421-LC91S; bold = blocking
Experimental: as §1

PDLoneECDHisCtag [9] = target: T2, PDLoneECDHisCtag; assay: BLI cross-block, second antibody on PDLoneECDHisCtag held by immobilised 511-LC33S; bold = blocking
Experimental: as §1

PDLoneECDHisCtag [10] = target: T2, PDLoneECDHisCtag; assay: BLI cross-block, second antibody on PDLoneECDHisCtag held by immobilised 632; bold = blocking
Experimental: as §1

PDLoneECDHisCtag [11] = target: T2, PDLoneECDHisCtag; assay: BLI cross-block, second antibody on PDLoneECDHisCtag held by immobilised 547; plain = non-blocking
Experimental: as §1

PDLoneECDHisCtag [12] = target: T2, PDLoneECDHisCtag; assay: BLI cross-block, second antibody on PDLoneECDHisCtag held by immobilised 476-N101Q-LC33S; bold = blocking
Experimental: as §1

PDLoneECDHisCtag [13] = target: T2, PDLoneECDHisCtag; assay: BLI cross-block, second antibody on PDLoneECDHisCtag held by immobilised 421-LC91S; plain = non-blocking
Experimental: as §1

[14] = target: T3, cynomolgus monkey PD-L1 (full length, on CHO cells) (cynomolgus monkey (Macaca fascicularis), UniProt G7PSE7 19-290); assay: flow cytometry on CHO cells transfected with cynomolgus PD-L1, PE anti-human IgG secondary, MFI (PE)
T3 construct: whole, on cells; also called PDL1 Mf; cynomolgus PD-L1
T3 sequence (G7PSE7 entry or part of it): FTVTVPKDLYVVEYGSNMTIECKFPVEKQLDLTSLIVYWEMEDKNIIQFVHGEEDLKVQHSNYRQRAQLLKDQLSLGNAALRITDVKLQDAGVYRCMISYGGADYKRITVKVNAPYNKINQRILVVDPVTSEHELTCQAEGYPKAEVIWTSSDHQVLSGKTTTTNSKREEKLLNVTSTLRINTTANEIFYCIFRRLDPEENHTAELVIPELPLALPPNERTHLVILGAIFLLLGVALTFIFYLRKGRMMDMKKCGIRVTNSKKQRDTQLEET
Experimental: (§2) Cells (3-5×10⁴ cells/well) were incubated in polystyrene 96-well round-bottom plates (Greiner bio-one, cat. no. 650101) with serial dilutions of antibodies (range 0.0001 to 10 μg/mL in 5-fold dilution steps) in 50 μL PBS/0.1% BSA/0.02% azide (staining buffer) at 4° C. for 30 min.
(§3) After washing twice in staining buffer, cells were incubated in 50 μL secondary antibody at 4° C. for 30 min. As a secondary antibody, R-Phycoerythrin (PE)-conjugated goat-anti-human IgG F(ab′)₂ (Cat. no. 109-116-098, Jackson ImmunoResearch Laboratories, Inc., West Grove, Pa.) diluted 1:500 in staining buffer, was used for all experiments. Next, cells were washed twice in staining buffer, re-suspended in 20 μL staining buffer and analyzed on an iQue screener (Intellicyt Corporation, USA). Binding curves were analyzed using non-linear regression (sigmoidal dose-response with variable slope) using GraphPad Prism V75.04 software (GraphPad Software, San Diego, Calif., USA).
Binding to CHO cells expressing cynomolgus PD-L1 was determined by flow cytometry using a method as described above.

[15] = target: T4, human PD-L1 (full length, on cells) (human, UniProt Q9NZQ7 19-290); assay: flow cytometry on MDA-MB-231 cells, PE anti-human IgG secondary, MFI (PE)
T4 construct: The entry holds the signal peptide; also called CD274; B7H1
T4 sequence (Q9NZQ7 19-290 limits assumed): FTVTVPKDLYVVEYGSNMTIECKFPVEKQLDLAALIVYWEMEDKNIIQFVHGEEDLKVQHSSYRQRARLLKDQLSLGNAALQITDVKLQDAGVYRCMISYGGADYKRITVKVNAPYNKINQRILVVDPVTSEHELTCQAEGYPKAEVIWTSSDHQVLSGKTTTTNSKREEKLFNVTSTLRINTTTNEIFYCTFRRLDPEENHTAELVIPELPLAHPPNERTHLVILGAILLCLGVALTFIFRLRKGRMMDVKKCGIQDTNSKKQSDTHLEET
Experimental: as §2, §3

[16] = target: T1, human PD-L2 (full length, on CHO cells); assay: flow cytometry on CHO cells expressing human PD-L2
Experimental: as §2, §3
A PE-conjugated PD-L2 specific antibody (Mylteni, clone MIH18; cat. no. 130-098-651) was used as positive control.

PDLoneECDHisCtag [17] = target: T2, PDLoneECDHisCtag; assay: BLI cross-block, second antibody on PDLoneECDHisCtag held by immobilised 516; bold = blocking
Experimental: as §1

PDLoneECDHisCtag [18] = target: T2, PDLoneECDHisCtag; assay: BLI cross-block, second antibody on PDLoneECDHisCtag held by immobilised 476-N101Q-LC33S; plain = non-blocking
Experimental: as §1

PDLoneECDHisCtag [19] = target: T2, PDLoneECDHisCtag; assay: BLI cross-block, second antibody on PDLoneECDHisCtag held by immobilised 511-LC33S; plain = non-blocking
Experimental: as §1

| Binder | association response of the second antibody (PDLoneECDHisCtag [1]) [nm] | association response of the second antibody (PDLoneECDHisCtag [2]) [nm] | association response of the second antibody (PDLoneECDHisCtag [3]) [nm] | association response of the second antibody (PDLoneECDHisCtag [4]) [nm] | association response of the second antibody (PDLoneECDHisCtag [5]) [nm] | association response of the second antibody (PDLoneECDHisCtag [6]) [nm] | association response of the second antibody (PDLoneECDHisCtag [7]) [nm] | association response of the second antibody (PDLoneECDHisCtag [8]) [nm] | association response of the second antibody (PDLoneECDHisCtag [9]) [nm] | association response of the second antibody (PDLoneECDHisCtag [10]) [nm] | association response of the second antibody (PDLoneECDHisCtag [11]) [nm] | association response of the second antibody (PDLoneECDHisCtag [12]) [nm] | association response of the second antibody (PDLoneECDHisCtag [13]) [nm] | EC50 (read off the curve) [14] [µg/mL] | binding result [15] | binding result [16] | association response of the second antibody (PDLoneECDHisCtag [17]) [nm] | association response of the second antibody (PDLoneECDHisCtag [18]) [nm] | association response of the second antibody (PDLoneECDHisCtag [19]) [nm] |
| --- | --- | --- | --- | --- | --- | --- | --- | --- | --- | --- | --- | --- | --- | --- | --- | --- | --- | --- | --- |
| IgG1-321-FEAR (antibody, V domains shown) VH: EVQLVESGGGLVQPGGSLRLSCAASGFTFSSYWMSWVRQAPGKGLEWVANIKQDGNEKYYVDSVKGRFTISRDNAKNSLYVQMNSLRAEDTAVYYCARDLYYGSGTYPPFDYWGQGTLVTVSS VL: DIQMTQSPSTLSASVGDRVTITCRASQSISSWLAWYLQKPGKAPKLLIYKASSLESGVPSRFSGSGSGTEFTLTISSLQPDDFATYYCQQYHSSSYTFGQGTKLEIK | 0 | 0 | 1.1 | 0 | 0 | 0.6 | 0 | -0.1 | 0 |  |  |  |  |  |  |  |  |  |  |
| IgG1-632-FEAR (antibody, V domains shown) VH: QVQLVESGGGLVKPGGSLRLSCAASGFTFSDYYMSWIRQAPGKGLEWVSYIGSSSNTIYYADSVKGRFTISRDNAKNSLYLQMNSLRAEDTAVYSCARDRVKYGSPGSLFDYWGQGTLVTVSS VL: SYELTQPPSVSVSPGQTARITCSGDALPKKYAFWYQQKSGQAPVLVIYEDSKRPSGIPERFSGSSSGTMATLTISGAQVEDEADYYCYSTASSGDHRVFGGGTKLTVL |  |  | 1.1 |  |  |  |  |  | 0 | 0 | 0.7 | 0 | 0.2 |  |  |  |  |  |  |
| IgG1-476-N101Q-LC33S-FEAR (antibody, V domains shown) VH: EVQMLESGGGLVQPGGSLRLSCAASGFTFRSYAMSWVRQAPGKGLEWVSGIGDSGGSTYHADSVKGRFTISRDNSKNTLYLQMNSLRAEDTAVYYCAKLGQSSGWYDHYYYYGMDVWGQGTTVTVSS VL: SYELTQPPSVSVSPGQTASITCSGDKLGNKYVSWFQQKPGQSPVLVIYRDSERPSGIPERFSGSNSGNTATLTISGTQAVDEADFYCQAWDSSTVVFGGGTKLTVL |  |  | 1.2 |  |  |  |  |  | 0 | 0 | 0.8 | 0 | 0.4 |  |  |  |  |  |  |
| bsIgG1-huCD3-H1L1-FEAL×511-LC33S-FEAR (bispecific antibody) heavy 1: not shown VL: not shown heavy 2: QVQLVQSGSELKKPGASVMVSCKASGYTFTSYVMNWVRQAPGQGLEWMGWINSYTGNPTSAQGFTGRFVFSFDTSVNTAYLQISSLKAEDTAVYYCARGYCTSTSCYLDYWGQGTLVTVSSASTKGPSVFPLAPSSKSTSGGTAALGCLVKDYFPEPVTVSWNSGALTSGVHTFPAVLQSSGLYSLSSVVTVPSSSLGTQTYICNVNHKPSNTKVDKRVEPKSCDKTHTCPPCPAPEFEGGPSVFLFPPKPKDTLMISRTPEVTCVVVAVSHEDPEVKFNWYVDGVEVHNAKTKPREEQYNSTYRVVSVLTVLHQDWLNGKEYKCKVSNKALPAPIEKTISKAKGQPREPQVYTLPPSREEMTKNQVSLTCLVKGFYPSDIAVEWESNGQPENNYKTTPPVLDSDGSFFLYSRLTVDKSRWQQGNVFSCSVMHEALHNHYTQKSLSLSPGK light: SYELTQPPSVSVSPGHTARITCSGDALPKKYASWFQQKSGQAPVLVIYEDSKRPSGIPERFSGSTSGTMATLTISGAQVEDETDYYCYSADTSGTHRVFGGGTKLTVLGQPKAAPSVTLFPPSSEELQANKATLVCLISDFYPGAVTVAWKADSSPVKAGVETTTPSKQSNNKYAASSYLSLTPEQWKSHRSYSCQVTHEGSTVEKTVAPTECS |  |  |  |  |  |  |  |  |  |  |  |  |  | ~0.3 | binds | no binding |  |  |  |
| IgG1-421-LC91S-FEAR (antibody, V domains shown) VH: EVQLVESGGGLVQPGRSLRLSCAASGFTFDDYAMHWVRQGPGKGLEWVSGIRWNSGSMHYADSVKGRFTISRDNAKSSLYLQMNSLRAEDTALYYCARAPWYSGAWHPDYWGQGTLVTVSS VL: QSALTQPRSVSGSPGQSVTISCTGTSSDVGTYNYVSWYQQHPGKAPKLMIYDVIKRPSGVPDRFSGSKSGNTASLTLSGLQAEDEADYYCSSYAGTYTLLFGGGTKLTVL | 0 | 0 |  | 0 | 0 | 0.6 | 0 | 0 |  |  |  |  |  |  |  |  | -0.1 | 0.8 | 0.6 |
